Assay results from the supplement of paper PMC7125110.
± gives the standard error. For some assays here: Fewer inactive variants are shown than the library holds.

B1: glmS ribozyme (parent)
chain: AUAAAAGCGCCAGAACUACAGAAAUGUAGUUGACGAGGAGGAGGUUUAUCGAAUUUUCGGCGGAUGCCUCCAAA

Legend:
Details in all cases: with glucosamine-6-phosphate
glucosamine-6-phosphate [1] = variants of: B1; test: kcat; higher = faster cleavage; RNA array
How it was run: (§1)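 Glucosamine-6-phosphate in HEPES/KCl/Mg(OAc)2 buffer, at 40 μM to 10 mM, was flowed over barcoded ribozyme variants transcribed in situ by E. coli RNA polymerase on sequenced MiSeq chips. Tracking was through a hybridised Cy3 probe at 37 °C. kobs, kcat and KM came from exponential decay fits and weighted Michaelis–Menten fits of normalised per-tile medians.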

glucosamine-6-phosphate [2] = variants of: B1; test: KM; higher = weaker cofactor use; RNA array
How it was run: as §1

glucosamine-6-phosphate [3] = variants of: B1; test: self-cleavage kobs at 40 uM GlcN6P; higher = faster cleavage; RNA array
How it was run: as §1

glucosamine-6-phosphate [4] = variants of: B1; test: self-cleavage kobs at 160 uM GlcN6P; higher = faster cleavage; RNA array
How it was run: as §1

glucosamine-6-phosphate [5] = variants of: B1; test: self-cleavage kobs at 640 uM GlcN6P; higher = faster cleavage; RNA array
How it was run: as §1

glucosamine-6-phosphate [6] = variants of: B1; test: self-cleavage kobs at 2500 uM GlcN6P; higher = faster cleavage; RNA array
How it was run: as §1

glucosamine-6-phosphate [7] = variants of: B1; test: self-cleavage kobs at 10000 uM GlcN6P; higher = faster cleavage; RNA array
How it was run: as §1

Variant	kcat (glucosamine-6-phosphate [1]) [s⁻¹]	KM (glucosamine-6-phosphate [2]) [µM]	self-cleavage kobs at 40 uM GlcN6P (glucosamine-6-phosphate [3]) [s⁻¹]	self-cleavage kobs at 160 uM GlcN6P (glucosamine-6-phosphate [4]) [s⁻¹]	self-cleavage kobs at 640 uM GlcN6P (glucosamine-6-phosphate [5]) [s⁻¹]	self-cleavage kobs at 2500 uM GlcN6P (glucosamine-6-phosphate [6]) [s⁻¹]	self-cleavage kobs at 10000 uM GlcN6P (glucosamine-6-phosphate [7]) [s⁻¹]
AUAAAAGCGCCAGAACUACAGAAAUGUAGUUGACGAGGAGGAGGGUUAUCGAAUUUUCGGCGGAUGGCUCCAAA [U45G C67G]	0.000915 ± 0.00011	1420 ± 340	3.25e-05 ± 1.2e-05	7.93e-05 ± 2.7e-05	0.000303 ± 4.8e-05	0.000477 ± 0.00011	0.000846 ± 0.00011
AUAAAAGCGCCAGAACUACAGAAAUGUAGUUGACGAGGAGGAGGAUUAUCGAAUUUUCGGCGGUUGCCUCCAAA [U45A A64U]	0.000543 ± 3.2e-05	2140 ± 230	–	–	0.00013 ± 2.1e-05	0.00029 ± 4.4e-05	0.000447 ± 7.9e-05
AUAAAAGCGCCAGAACUACAGAAAUGUAGUUGACGAGGAGGAGGAUUAUCGAAUUUUCGGCGGAUGUCUCCAAA [U45A C67U]	0.0622 ± 0.028	–	0.00106 ± 0.00014	0.00246 ± 0.00047	0.0118 ± 0.0023	0.033 ± 0.01	0.0465 ± 0.014
AUAAAAGCGCCAGAACUACAGAAAUGUAGUUGACGAGGAGGAGGCUUAUCGAAUUUUCGGCGGAUGCCUGCAAA [U45C C70G]	0.00245 ± 0.00063	–	–	3.27e-05 ± 1.6e-05	8.88e-05 ± 3.7e-05	0.000381 ± 7.3e-05	0.001 ± 0.00025
AUAAAAGCGCCAGAACUACAGAAAUGUAGUUGACGAGGAGGAGGGUUGUCGAAUUUUCGGCGGAUGCCUCCAAA [U45G A48G]	2.93e-05 ± 2.6e-06	2270 ± 860	–	–	–	–	–
AUAAAAGCGCCAGAACUACAGAAAUGUAGUUGACGAGGAGGAGGGUUAUCGGAUUUUCGGCGGAUGCCUCCAAA [U45G A52G]	0.000403 ± 0.0001	3100 ± 1400	–	–	8.01e-05 ± 1.6e-05	0.000142 ± 3.2e-05	0.000345 ± 6e-05
AUAAAAGCGCCAGAACUACAGAAAUGUAGUUGACGAGGAGGAGGAUCAUCGAAUUUUCGGCGGAUGCCUCCAAA [U45A U47C]	0.00985 ± 0.0035	2660 ± 1300	0.00017 ± 4.6e-05	–	0.00165 ± 0.00043	0.0091 ± 0.0044	0.00776 ± 0.0024
AUAAAAGCGCCAGAACUACAGAAAUGUAGUUGACGAGGAGGAGGCUUAUCGAAUUAUCGGCGGAUGCCUCCAAA [U45C U56A]	0.000778 ± 0.00024	–	–	7.1e-05 ± 1.5e-05	0.000288 ± 3.9e-05	0.000377 ± 6.1e-05	0.000928 ± 0.00015
AUAAAAGCGCCAGAACUACAGAAAUGUAGUUGACGAGGAGGAGGCUUAUCGAAUUUUCGGCGGACGCCUCCAAA [U45C U65C]	0.000282 ± 2.2e-05	6720 ± 780	–	–	–	7.8e-05 ± 1.7e-05	0.000167 ± 4.8e-05
AUAAAAGCGCCAGAACUACAGAAAUGUAGUUGACGAGGAGGAGGGUUAUCGACUUUUCGGCGGAUGCCUCCAAA [U45G A53C]	0.00249 ± 0.00031	1820 ± 370	5.63e-05 ± 8.5e-06	0.000176 ± 3.1e-05	0.000627 ± 0.00012	0.00179 ± 0.00022	0.00197 ± 0.00021
AUAAAAGCGCCAGAACUACAGAAAUGUAGUUGACGAGGAGGAGGAUUAUCGAAUUUUCGGCGGAUGCUUCCAAA [U45A C68U]	0.0022 ± 0.00039	1080 ± 320	7.41e-05 ± 1.2e-05	0.000537 ± 0.00012	0.000729 ± 0.00013	0.00176 ± 0.00032	0.00194 ± 0.00027
AUAAAAGCGCCAGAACUACAGAAAUGUAGUUGACGAGGAGGAGGCUUAUCGAAUUUUCGGCGGAUGGCUCCAAA [U45C C67G]	0.0224 ± 0.0058	5680 ± 1800	0.000175 ± 3.4e-05	0.000503 ± 0.00012	0.00339 ± 0.0011	0.00755 ± 0.0031	0.0141 ± 0.0026
AUAAAAGCGCCAGAACUACAGAAAUGUAGUUGACGAGGAGGAGGCUUAUCGAAUUUUCGGCGGAUGUAUCCAAA [U45C C67U C68A]	4.01e-05 ± 3.3e-06	533 ± 230	–	–	–	–	–
AUAAAAGCGCCAGAACUACAGAAAUGUAGUUGACGAGGAGGAGGCUUAUCGAAUAUUCGGCGGAUGCCUCCAAA [U45C U55A]	0.00681 ± 0.0026	5900 ± 2800	5.89e-05 ± 1.4e-05	–	0.000581 ± 0.00013	0.00182 ± 0.00067	0.00457 ± 0.0012
AUAAAAGCGCCAGAACUACAGAAAUGUAGUUGACGAGGAGGAGGCUUAUCGAAUUUUCGGCGGAUUCCUCCAAA [U45C G66U]	0.000814 ± 9.5e-05	2830 ± 630	–	4.7e-05 ± 1.5e-05	0.000151 ± 3.2e-05	0.000326 ± 8.3e-05	0.000653 ± 8.2e-05
